Results on 21 sequences are retold here after a protein production outcome set (Wang et al. 2014).

This data set in a line: label from the status in PepcDB records.
For “MTHCADNGAPLAARQSAARARMSLPVDSPDAATAADSLPPAPAPRPRAPASLVVLATLAVGYTLWAAQTIILPIMLAAFFALIGNPILRGLRKLYIPRFLGALLILCLGLAGTVTLAAQLAGPAAEWVQQAPRQMRQIARDVRDLTKPVMQANQAAENFARAAGGEGQRGVQIVRTQMDDPYKALVRTPKLAASVLAVVLLTFFFMVYGESLQRHAIALLPNRQQQRFTTEIMLDIEREVSRYVLTISVINTLVGLVFAGILYVLQIPLPEAILWGTVVALLNFAPYVGPLIGVMLMLLMGFVEFRTTLSSLLPAILYLALHTIEGQVVTPIVLGRRMAISPLMLILALMLFGWLWGMVGLLLAVPLLVCIKMVLSRVDGMQRWARLLE”, the protein production result was “failed”. Take “MTITDKNRLTGEADPRRTSLYGPPSMDALTERALHLARAGRALLGIVGEPGAGKSTFAEQLRARLEKERPGLAVTVSMDGFHLAQKVIEARGQAADKGTIDTFDADGFVALLRRTRAETGDTENTESTVWWPEFDRDLEDPVAGSIEVAPHHRLVIVDGNFLLSAQEPWRQVKGLLDETWFLDALPEPRRERLTRRYISYGFTPEAARAKTLGVDEDTSALIRSTVSRADLVIGEARESGGVSDCLEHHHHHH”: the protein production entry was “failed”. Then “MASGSMSSYGSGSWTVKQNKAFERALAVYDQDTPDRWHNVARAVGGKTPEEAKRQYDLLVRDIESIENGHVPFPDYKTTTGNSNRGRLRDEEKRMRSMKLQ”, with “failed”.

With “AIASNSLEEKKSYFSNRVNLLVENIGTSLRDLLRQGADSSDWNEYAGNLELHLSIENISRDLEELLTLSFEIEVLTLEGNLPQVMSETDGVEAAIQKRIAELNFALEQTGVFSGFSFLYDVNFQQIVEKATRALQKVSDYTPWVLDDGHNM”, the protein production result is listed as “failed”. In the case of “MRLFFEFTLCAALGLLVSGVILIFLLFFGKFGLIEYWIASGKPLAHAMLVLMPDGFWEGLSGIEGAAGNPHVRSFLELCMGLGQSALLLGLLLFRLVCWK” it was “failed”; in that of “MAAKRLAVLCIFLLPNTQFRQLRLAETAEELPQLLREAEKASWTYLEFLESITRYELAKREAKSLEKRMKWARFPFVKSLDEFELRGQNVLTARQLSQLRELSWLEQQYNLILLGPPGIGKTYIAIGLGLEAVYRGFHVYFATMGELVQLLKSEEYLNKSKVQLKRIRNADLVIIDDLMYMAMDQREANLFFHLINHLYERSSIILTSNKSPEEWGHLIGDQGITTAILDRLLHRVEVIHGGENEESHRMKNRKSIFSAEVLEHHHHHH”, “failed”. In the case of “MKPNIVLIMVDQMRGDCLGVNGNEFIETPNLDMMATEGYNFENAYTAVPSCIASRASILTGMSQKSHGRVGYEDGVSWNYENTIASEFSKAGYHTQCIGKMHVYPERNLCGFHNIMLHDGYLHFARNKEGKASTQIEQCDDYLKWFREKKGHNVDLIDIGLDCNSWVSRPWGYEENLHPTNWVVNESIDFLRRRDPSKPFFLKMSFVRPHSPLDPPKFYFDMYKDEDLPEPLMGDWANKEDEENRGKDINCVKGIINKKALKRAKAAYYGSITHIDHQIGRFLIALSEYGKLNNTIFLFVSDHGDMMGDHNWFRKGIPYEGSARVPFFIYDPGNLLKGKKGKVFDEVLELRDIMPTLLDFAHISIPDSVEGLSLKDLIEERNSTWRDYIHGEHSFGEDSNHYIVTKKDKFLWFSQRGEEQYFDLEKDPKELTNLINSEEYKERIDYLRKILIKELEGREEGYTDGNKLLKGYPVSTLKHIR”, the protein production entry is recorded as “failed”. Turning to “MIYMDVYMNSYFPHNLDTENSIIDLSKWQELADLIVDIFGADCGAIIKFTGHSFTTMLSSRNEASFLHQGTEWSSDSKSFCRTIIKTGKPLYIANAVEDEYWFDAPPVVNGPVRSYCGVPIFSPDGSIYGTICAIDTKSTRYEDALTKLLLHLSKLITSDLKIAEKAEQHRLMALTDQTTGLLNRRGLNVLSEQKFKDAKRNQDHIGVLYLDIDNLKIINDNFGHLAGDKCIKLLATILKKMVRQSDLIARIGGDEFTVLALINSENTNELDHLSMRIREVYQNEIKDNAELNMSNISIGQHLVSYDSNASLKEMLAKADSLMYQEKIDKS”, the protein production entry is on record as “failed”. Then “MPMWLQALMWGTLAGGALVLGAGIAWMWKVPPKIVSTVMAFGAGVLISALAFELVDEAVEGGGLLPTVLGFLLGALIFVGSNALLARAGAKHRKRSGGSQPSEKDSPGSGTAIAVGALIDGIPESVVLGVGLLAGGAVSPAMLAAVLISNVPEGLSSTAGMKKAGRSPAYVFGTWIGIAVFSGLAALLGYTALENAPETVIAFITAIAAGGILAMLADTMIPEAFEEHHNLTGLTAAVGFLSAFTIHHVGG”, with “failed”; and “MYQKFKGGDLMIHGGDIYTEGVFKGRELLDYSSNINPLGIPKSFLNNIDEGIKNLGVYPDVNYRRLNKSIENYLKLKDIGIVLGNGASEIIELSISLFEKILIIVPSYAEYEINAKKHGVSVVFSYLDENMCIDYEDIISKIDDVDSVIIGNPNNPNGGLINKEKFIHVLKLAEEKKKTIIIDEAFIEFTGDPSSSFVGEIKNYSCLFIIRAMTKFFAMPGIRFGYGITNNKEIAAKIKAKQNPWNINCFAEMAAINCLKDTNYIEESLLWIKKERKRFIEELNKIGFIKRVFSPHANFVLCRLENISGEKLYDSLLKEDIVIRRCCNFIGLDDSFVRFAIKDEKKNTKFLRALKGVENNL”, with “not failed”; and “MKLDHNFSNQAIDAFIKISALSVLVLWCFSILKPFLLLMVWGGIIATALYPIVAFFSKKTALSESKVSIILTVIGVLLLLIPLVALSTGIYTSGTELFLGYQDGSIAIPKPKERMQDWPIIGHEAYSFMSLASSNLESLLFKYSAEVKVVAAKAASLVGSLGGGFIQFIVSTIIAGVFMANAAKCERAFILITNRLTGKHGEELIKLSKITIRSVVQGVIGVAVIQATMAGLGMAVVGISASVLGLWVFLVLVFAIIQLPPILILLPIIFYVFSVDTTTAGVLFAVWCVLVSSSDAILKPVLLSRGSHIPIIVILLGALGGMAMSGIVGLFVGAVVLSLTYQMFTVWLKNEAEETQNAKDNP”, with “failed”. In the case of “MSTASGITMASMSTYAILGCGSVGHAVAEELVEEGKDVLILDADEGRVEALRDQDLNAQQADICETDVAQTVADRDVVLIMSPDVNANAEAVRNIRESGGEQFIVARADDPVSADDLTELGADVVINPSAVIADSALRALETGELEYKASQLGDVIDGTEERMAILIHRSPDPDSIASAAALRAIAASRDVDADIIYEGEIGHQENRAFVNLLGIELTSNEDVNLDEYDTFALVDVAKGGEPAVESVDIVIDHYEHEHELEHDAAFSDIRPNISATSTILTKYIQELDLNLDQSVATALLYGIRAETLDFKRDTTPADLTAAAYLYPFADHDTLEQVESPSMSPETLDVLAEAIRNREVQGSHLVSNAGFIRDRDALAQAAQHLLNLEGITTTAVFAIADDTIYLAARSKDIRMNIGKVLSDAFGGMGETAGHSTDASVEIPLGIFTGLDTSDDNRDTLLELTEEAVKRKLFEAMGVDSSSSESSNGN” it was “not failed”; in that of “MGHVLIEMMGIKKGDFVLDVGCGTGRQALNVAGIIGPAGKLTGIDPSSYRIELARKKFEGDSSGNVRFLVRQAENLQDIPDNSINHAYFCSSFHWVDDKKTALNEIFRVLRPGGKVGMTTLDRNSPNTMKALIDPILAKFGIERRHEWHRGMKKVTAPELHDLLSGAGFTSISIEPRAVPRKYNSPEEFLQHPEEKDSSRGILRDISNETLEKLRQEITEEFRKAQTPEDIGFGNITLFAIATKAQEGLEHHHHHH”, “not failed”; in that of “MLKRCLSPLTLVNQVALIVLLSTAIGLAGMAVSGWLVQGVQGSAHAINKAGSLRMQSYRLLAAVPLSEKDKPLIKEMEQTAFSAELTRAAERDGQLAQLQGLQDYWRNELIPALMRAQNRETVSADVSQFVAGLDQLVSGFDRTTEMRIETVVLVHRVMAVFMALLLVFTIIWLRARLLQPWRQLLAMASAVSHRDFTQRANISGRNEMAMLGTALNNMSAELAESYAVLEQRVQEKTAGLEHKNQILSFLWQANRRLHSRAPLCERLSPVLNGLQNLTLLRDIELRVYDTDDEENHQEFTCQPDMTCDDKGCQLCPRGVLPVGDRGTTLKWRLADSHTQYGILLATLPQGRHLSHDQQQLVDTLVEQLTATLALDRHQERQQQLIVMEERATIARELHDSIAQSLSCMKMQVSCLQMQGDALPESSRELLSQIRNELNASWAQLRELLTTFRLQLTEPGLRPALEASCEEYSAKFGFPVKLDYQLPPRLVPSHQAIHLLQIAREALSNALKHSQASEVVVTVAQNDNQVKLTVQDNGCGVPENAIRSNHYGMIIMRDRAQSLRGDCRVRRRESGGTEVVVTFIPEKTFTDVQGDTHE”, “failed”. Then “SAEASSANLGSGCEEKRHEGSSSESVPPGTTISRVKLLDTMVDTFLQKLVAAGSYQRFTDCYKCFYQLQPAMTQRIYDKFIAQLQTSIREEISDIKEEGNLEAVLNALDKIVEEGKVRKEPAWCEAQRCRVQQRCSLCVQAGGQRGSEETQALPVSMAGSPSPLPGSPGAQEGGV”, with “failed”. For the sequence “MIKPSNYQPPYTITPAIVNLVAEIGEIIGRYTVLAEQNLTPRLRRENRIRTIQASLAIENNTLTLEQVTAVIDGKRVLGHPREIQEVRNAFATYEAMEDWDASVEGDLLAAHELLMRGLVDETGRYRSGGVGIFRGEQLVHMAPPADRVPKLMADLLDWLENTNEHPLVASCIFHYEFEFIHPFADGNGRMGRLWQTLILRNWKPLLAYLPVETVIRDRQEDYYRVLAVADSQADATPFVEFMLGALRDAVREAVSTDHVGDQVTDQVAALIRAIGGGELSSNDLMQALGLSHRPTFRNNYLNPAMEDEWIERTQPDSPRSPTQRYRLTGKGQRWLQHHADE”, the protein production entry is on record as “not failed”. As to “MAPAPAAEFWEARYRDTGRVWSGRPNELLVQEAGGLAPGTALDLGCGEGADAVWLASRGWRVTGVDISATALERAAGHADGAGVGDRVLWERHELGPSFPEGSFDLVSAHYLQSPVALDQQAVLRAAARAVAPGGTLLVVMHAGWPSWQTEPPFDAAFPTLDGVLAELALPEGEWSVETRRTARRPLEHHHHHH”, the protein production entry is listed as “failed”. In the case of “ANVKLLLPYILKWEGGFVHDPADAGGATNKGVTIATWKRVGYDKDGDGDIDVEDLKLLTDDDVLNRVLKPFYWDRWKADLIESQKVANILVDWVWGSGKYGIVIPQRILGVQADGIVGNKTLQAVNSADPDELFESIFDARREFLEDITARSIKKYEDSIGRKATERELLRHTNKRFLRGWLNRLEDIRKL” it was “not failed”; in that of “MKFLVENLNGSSFELEVDYRDTLLVVKQKIERSQHIPVSKQTLIVDGIVILREDLTVEQCQIVPTSDIQLEVSSDDDNPNHNDCDQKPQTEQSPALPLVSAEEYFERQDWPLTAEELRQIYSYRPEHEG”, “failed”. “MSDKKTQTRARILGAATQALLERGAVEPSVGEVMGAAGLTVGGFYAHFQSKDALMLEAFEQLLGKRRELLGELDPGLSGKERRALAAAFYLSRKHRDAQVDAGCPLPATLAEVARLPEGFREVLSRHVEIMVTSLAESPEETDVALADLVLMIGGLALARALGPGELSDRVLRAAKQAVN”: the protein production entry is reported as “not failed”. Take “MTWTNVLAMLVWTGASAVLLFAIMWVDSIFTKYNDLKEIKNGNTAVTTRFVMKLFAQGYILSQSITKANDLWQALLASAVSFVILLVVEMFIEFVLKKMAGLDLEEGTKEGSVAHAMLAGSLHIVGALILGACL”: the protein production result is reported as “failed”.
